Measured values published in US20220133889A1 (published 2022).

Assays:
[1] = target: TIM-3 (assay antigen; species and construct not stated) (UniProt Q8TDQ0 22-202); test: SPR (BIAcore)
[2] = target: T1, cynomolgus TIM-3 expressed on transfected cells (cynomolgus, UniProt A0A2K5U3G7 22-294); test: cell binding (FACS); cyno TIM-3 cells
T1 chain: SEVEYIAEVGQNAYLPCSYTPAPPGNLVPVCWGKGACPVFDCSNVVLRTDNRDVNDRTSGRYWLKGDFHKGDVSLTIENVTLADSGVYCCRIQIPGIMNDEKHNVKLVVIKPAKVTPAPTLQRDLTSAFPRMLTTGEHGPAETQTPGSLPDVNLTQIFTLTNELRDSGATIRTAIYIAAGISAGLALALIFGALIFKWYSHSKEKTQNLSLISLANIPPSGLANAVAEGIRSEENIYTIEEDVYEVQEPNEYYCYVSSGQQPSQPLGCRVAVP

[3] = target: human TIM-3 expressed on cells (UniProt Q8TDQ0 22-301); test: cell binding (FACS); TIM-3-transfected 300.19 cells

B1: ABTIM3 (antibody, V domains shown)
VH: QVQLQQPGAELVKPGASVKMSCKASGYTFTSYNMHWIKQTPGQGLEWIGDIYPGNGDTSYNQKFKGKATLTADKSSSTVYMQLSSLTSEDSAVYYCARVGGAFPMDYWGQGTSVTVSS
VL: DIVLTQSPASLAVSLGQRATISCRASESVEYYGTSLMQWYQQKPGQPPKLLIYAASNVESGVPARFSGSGSGTDFSLNIHPVEEDDIAIYFCQQSRKDPSTFGGGTKLEIK
Binder B1 has a Kd [1] of 0.042 nM, a Kd [2] of 0.68 nM and a Kd [3] of 0.16 nM.
